Laboratory results taken from patent publication US20180086841A1 (Merck Sharp & Dohme, published 2018).

What was measured:
[1] = molecular target: T1, human CD27 (human, UniProt P26842 21-260); experiment: flow cytometry MFI, CD4+ T cells of human PBMC, N=2 donors
T1 construct: also called hCD27; HsCD27
Experimental: (§1) Labeled cells were washed by re-suspending them in 150 ul of staining buffer (SB) followed by centrifugation at 300 g for 5 minutes. Cells were then resuspended in 100 ul of SB containing primary anti-CD27 antibodies at various concentrations, incubated in the dark at 4° C. for 30 minutes, followed by washing and centrifugation steps as previously described. […] Cells were incubated for 30 minutes at 4° C. in the dark, followed by washing and centrifugation steps. Next, cells were stained with a cocktail of phenotypic antibodies for surface markers (CD3, CD4, CD8, CD11b) and incubated for 30 minutes at 4° C. in the dark, followed by washing and centrifugation steps. […] Samples were acquired in a LSR-Fortessa flow cytometer (BD Biosciences) using the high throughput sampler and data analyzed by FlowJo software (Tree Star Inc).

[2] = molecular target: T1, human CD27; experiment: flow cytometry MFI, CD8+ T cells of human PBMC, N=2 donors
Experimental: as §1

[3] = molecular target: T2, F28A; experiment: flow cytometry on CHO-K1 transfectants, left sub-column
T2 construct: also called hCD27 F28A
T2 receptor chain: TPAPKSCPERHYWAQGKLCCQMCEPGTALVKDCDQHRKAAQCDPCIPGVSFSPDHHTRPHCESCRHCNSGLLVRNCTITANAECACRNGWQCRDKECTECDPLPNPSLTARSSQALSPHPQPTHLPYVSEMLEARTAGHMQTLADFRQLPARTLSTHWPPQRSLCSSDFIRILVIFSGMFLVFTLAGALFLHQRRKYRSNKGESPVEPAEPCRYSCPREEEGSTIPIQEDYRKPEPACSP
Experimental: (§2) The hCD27 variants that were tested are listed. Amino acids correspond to the UniProt P26842-1 sequence. Amino acids 1-20 constitute the signal peptide. Binding is expressed as the geometric mean of the FITC signal, relative to antibody binding to hCD27, which was set at 100%.
(§3) The ability of several anti-hCD27 antibodies to bind to a series of hCD27 alanine mutants was determined using CHO-K1 cells, transiently transfected pCI-neo empty vector, pCI-neo.hCD27 and several pCI-neo.CD27Ala mutant constructs.
(§4) Detached cells were transferred to 96 wells round-bottomed well plates at approximately 1.2×10⁵ cells/well. After spinning down the cells, discarding the supernatants and re-suspending the cells in the residual volume, the primary antibodies were added and incubated for 30 minutes at 4° C. Cells were washed three times with DPBS/BSA 1%, followed by centrifugation, discarding of the supernatants and re-suspension in the residual volume. […] After washing once, antibody binding was detected using the HTS plate reader (FACS Canto II) and FlowJo software for data analysis. Debris, dead cells and doublets were excluded from the analysis. Binding was expressed as the geometric mean of the FITC signal, relative to antibody binding to hCD27, which was set at 100%.

[4] = molecular target: T3, Q41A; experiment: as above
T3 construct: also called hCD27 Q41A
T3 receptor chain: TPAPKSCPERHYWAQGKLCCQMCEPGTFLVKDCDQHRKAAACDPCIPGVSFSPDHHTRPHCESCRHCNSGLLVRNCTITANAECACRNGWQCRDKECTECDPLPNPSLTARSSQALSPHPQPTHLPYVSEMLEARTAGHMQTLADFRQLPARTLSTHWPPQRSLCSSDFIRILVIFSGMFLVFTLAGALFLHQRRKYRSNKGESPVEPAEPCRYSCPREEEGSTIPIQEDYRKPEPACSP
Experimental: as §2, §3, §4

[5] = molecular target: T4, I46A; experiment: as above
T4 construct: also called hCD27 I46A
T4 receptor chain: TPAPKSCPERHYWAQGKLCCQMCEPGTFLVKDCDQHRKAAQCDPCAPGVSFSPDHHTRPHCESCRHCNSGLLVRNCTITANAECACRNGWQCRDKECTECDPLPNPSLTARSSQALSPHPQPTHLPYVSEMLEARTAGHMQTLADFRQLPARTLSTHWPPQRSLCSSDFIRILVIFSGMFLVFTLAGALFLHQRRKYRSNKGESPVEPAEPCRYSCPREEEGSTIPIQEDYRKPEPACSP
Experimental: as §2, §3, §4

[6] = molecular target: T5, R93A; experiment: as above
T5 construct: also called hCD27 R93A
T5 receptor chain: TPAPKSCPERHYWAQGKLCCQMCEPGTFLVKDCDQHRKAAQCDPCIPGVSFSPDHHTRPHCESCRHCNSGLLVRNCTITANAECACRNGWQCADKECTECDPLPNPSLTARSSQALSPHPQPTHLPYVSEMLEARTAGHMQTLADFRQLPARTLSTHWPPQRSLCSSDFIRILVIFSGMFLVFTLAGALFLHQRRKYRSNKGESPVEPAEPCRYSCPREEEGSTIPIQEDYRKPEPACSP
Experimental: as §2, §3, §4

[7] = molecular target: T6, W13A; experiment: as above
T6 construct: also called hCD27 W13A
T6 receptor chain: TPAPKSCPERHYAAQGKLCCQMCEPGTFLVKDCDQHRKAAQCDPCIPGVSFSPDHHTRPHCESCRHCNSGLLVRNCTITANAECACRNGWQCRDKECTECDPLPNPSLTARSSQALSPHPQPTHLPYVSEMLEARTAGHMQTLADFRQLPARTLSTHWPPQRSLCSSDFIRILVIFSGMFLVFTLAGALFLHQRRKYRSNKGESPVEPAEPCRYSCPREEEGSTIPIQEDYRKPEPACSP
Experimental: as §2, §3, §4

[8] = molecular target: T7, H36A; experiment: flow cytometry on CHO-K1 transfectants, right sub-column, cell hatched (loss of binding)
T7 construct: also called hCD27 H36A
T7 receptor chain: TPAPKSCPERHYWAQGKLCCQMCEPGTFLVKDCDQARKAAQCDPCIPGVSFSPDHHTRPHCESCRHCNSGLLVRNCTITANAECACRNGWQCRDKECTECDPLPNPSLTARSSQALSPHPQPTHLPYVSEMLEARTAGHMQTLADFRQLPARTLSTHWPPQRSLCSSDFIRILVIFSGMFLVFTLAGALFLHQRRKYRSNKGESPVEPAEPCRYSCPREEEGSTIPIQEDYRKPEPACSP
Experimental: as §2, §3, §4

[9] = molecular target: T8, R37A; experiment: as above
T8 construct: also called hCD27 R37A
T8 receptor chain: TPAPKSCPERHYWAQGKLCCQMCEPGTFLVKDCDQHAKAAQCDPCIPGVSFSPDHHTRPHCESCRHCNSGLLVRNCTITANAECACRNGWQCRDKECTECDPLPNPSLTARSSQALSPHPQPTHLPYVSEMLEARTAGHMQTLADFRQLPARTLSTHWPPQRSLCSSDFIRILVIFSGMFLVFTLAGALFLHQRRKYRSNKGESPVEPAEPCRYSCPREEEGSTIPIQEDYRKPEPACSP
Experimental: as §2, §3, §4

[10] = molecular target: T9, K38A; experiment: as above
T9 construct: also called hCD27 K38A
T9 receptor chain: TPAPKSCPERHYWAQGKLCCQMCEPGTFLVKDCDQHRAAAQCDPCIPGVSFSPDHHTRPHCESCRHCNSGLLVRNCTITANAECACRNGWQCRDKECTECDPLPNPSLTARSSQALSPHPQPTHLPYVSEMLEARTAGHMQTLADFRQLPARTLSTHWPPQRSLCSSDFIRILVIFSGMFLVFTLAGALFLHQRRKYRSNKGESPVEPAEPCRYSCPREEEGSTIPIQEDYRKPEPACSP
Experimental: as §2, §3, §4

[11] = molecular target: T10, P8A; experiment: as above
T10 construct: also called hCD27 P8A
T10 receptor chain: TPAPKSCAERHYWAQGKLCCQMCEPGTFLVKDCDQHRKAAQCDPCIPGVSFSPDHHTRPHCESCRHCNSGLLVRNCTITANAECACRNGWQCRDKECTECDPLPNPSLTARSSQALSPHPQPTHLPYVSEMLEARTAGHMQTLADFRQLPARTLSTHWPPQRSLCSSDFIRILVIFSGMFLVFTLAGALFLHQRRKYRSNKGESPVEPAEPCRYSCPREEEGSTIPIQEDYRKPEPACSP
Experimental: as §2, §3, §4

EC50 [1]: 0.0645 nM | EC50 [2]: 0.0194 nM | binding, WT hCD27 = 100 (GM FITC) [3]: 106% | binding, WT hCD27 = 100 (GM FITC) [4]: 108% | binding, WT hCD27 = 100 (GM FITC) [5]: 132% | binding, WT hCD27 = 100 (GM FITC) [6]: 125% | binding, WT hCD27 = 100 (GM FITC) [7]: 86% | binding, WT hCD27 = 100 (GM FITC) [8]: 10.8% | binding, WT hCD27 = 100 (GM FITC) [9]: 9.6% | binding, WT hCD27 = 100 (GM FITC) [10]: 11.8% | binding, WT hCD27 = 100 (GM FITC) [11]: 15.9%
B1: hCD27.131A (mouse parental 131A) (antibody, mouse IgG1, V domains shown)
VH: QIQLVQSGPELKKPGETVKISCKASGYTFTNYGMNWVKQAPGKGLKWMGWINTNTGEPTYAEEFKGRFAFSLETSATTAYLQINNLKNEDTATYFCAREGDAMDYWGQGTSVTVSS
VL: QIVLTQSPAIMSASPGEKVTMTCSASSSVSYMHWYQQKSGTSPKRWIYDTSKLASGVPARFSGSGSGTSYSLTISSMEAEDAATYYCQQWNSYPFTFGSGTKLEIK
notes: Mouse IgG1 antibody; also called mouse hCD27.131A
